Measurements published in patent US20230212305A1 (published 2023).
Residue numbers refer to the chain shown, from its start. Values belong to the binder of their own block, whether it stands above or below them.

What was measured:
[1] = biological target: T1, cynomolgus ABCG2 (Macaca fascicularis) (UniProt Q5MB13 1-654); experiment: FACS binding to 293T cells
T1 chain: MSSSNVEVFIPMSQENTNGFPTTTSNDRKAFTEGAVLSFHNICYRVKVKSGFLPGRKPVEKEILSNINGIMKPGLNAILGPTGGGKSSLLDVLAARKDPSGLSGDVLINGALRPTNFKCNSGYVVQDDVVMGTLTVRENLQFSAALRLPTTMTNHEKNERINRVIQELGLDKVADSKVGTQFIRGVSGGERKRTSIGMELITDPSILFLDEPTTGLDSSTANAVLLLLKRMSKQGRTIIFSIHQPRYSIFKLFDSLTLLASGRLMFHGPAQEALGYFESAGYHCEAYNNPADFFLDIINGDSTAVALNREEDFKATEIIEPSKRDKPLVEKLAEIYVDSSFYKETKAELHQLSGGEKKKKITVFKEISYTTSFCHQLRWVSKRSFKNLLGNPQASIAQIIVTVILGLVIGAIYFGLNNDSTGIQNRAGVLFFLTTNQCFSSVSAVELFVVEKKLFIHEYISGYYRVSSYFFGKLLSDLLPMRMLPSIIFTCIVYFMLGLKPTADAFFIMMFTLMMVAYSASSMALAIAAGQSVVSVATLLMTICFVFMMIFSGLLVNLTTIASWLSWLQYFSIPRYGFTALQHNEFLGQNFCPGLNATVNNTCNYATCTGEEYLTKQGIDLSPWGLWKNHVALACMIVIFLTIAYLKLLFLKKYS

human ABCG2 [2] = biological target: T2, human ABCG2 (UniProt Q9UNQ0 1-655); experiment: FACS binding to 293T cells
T2 chain: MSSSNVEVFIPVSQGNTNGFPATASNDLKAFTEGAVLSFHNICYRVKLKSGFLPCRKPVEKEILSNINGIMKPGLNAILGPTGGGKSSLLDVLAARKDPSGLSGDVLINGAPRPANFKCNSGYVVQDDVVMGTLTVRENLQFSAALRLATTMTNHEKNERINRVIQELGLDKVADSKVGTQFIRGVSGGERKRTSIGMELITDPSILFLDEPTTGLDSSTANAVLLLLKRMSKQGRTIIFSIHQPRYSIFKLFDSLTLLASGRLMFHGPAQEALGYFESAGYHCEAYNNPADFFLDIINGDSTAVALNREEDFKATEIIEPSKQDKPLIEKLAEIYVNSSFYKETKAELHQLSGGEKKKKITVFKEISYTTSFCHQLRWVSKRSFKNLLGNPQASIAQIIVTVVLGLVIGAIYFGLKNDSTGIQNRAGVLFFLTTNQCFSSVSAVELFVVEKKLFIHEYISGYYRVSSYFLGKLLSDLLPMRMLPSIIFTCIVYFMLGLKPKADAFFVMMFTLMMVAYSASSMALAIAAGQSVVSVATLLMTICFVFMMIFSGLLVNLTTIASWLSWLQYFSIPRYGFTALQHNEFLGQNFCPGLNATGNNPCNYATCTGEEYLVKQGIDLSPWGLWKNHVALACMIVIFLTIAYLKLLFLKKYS

[3] = biological target: T1, cynomolgus ABCG2 (Macaca fascicularis); experiment: FACS binding to 293T cells
human ABCG2 [4] = biological target: T2, human ABCG2; experiment: FACS binding to 293T cells
[5] = biological target: T1, cynomolgus ABCG2 (Macaca fascicularis); experiment: cell binding
human ABCG2 [6] = biological target: T2, human ABCG2; experiment: cell binding
human ABCG2 [7] = biological target: T2, human ABCG2; experiment: FACS binding to 293T.hG2 cells
[8] = biological target: T1, cynomolgus ABCG2 (Macaca fascicularis); experiment: FACS binding to 293T.cG2 cells
human ABCG2 [9] = biological target: T2, human ABCG2; experiment: FACS cell binding (MFI)

Kd [1]: 58.4 nM | Kd (human ABCG2 [2]): 8.4 nM
B1: G2.343 rat (antibody, V domains shown)
VH: SVQLKESGPGLVQPSQTLSLTCTVSGFSLTSNGVSWVRQPPGKGLEWIAAISSGGSTYYNSVLKSRLSISRDTSKSQVFLKMNSLQTEDTAIYFCTRDTYYGYNQIPFVYWGQGTLVTVSS
VL: DVVLAQTPPTLSATIGQSVSISCRSSQSLLHSSGNTYLNWLLQRPGQPPQLLIYLVSRLESRVPNRFSGSGSGTDFTLKISGVEAEDLGVYYCVQSTHAPRTFGGGTKLELK

Kd [1]: 29.9 nM | Kd (human ABCG2 [2]): 11.1 nM
B2: G2.420 rat (antibody, V domains shown)
VH: SVQLMESGPGLVQPSQTLSLTCTVSGFSLNSYNVNWVRQPPGKGLEWIAAISSGGSTYYNSVLKSRLSITRDTSKSQVFLKMNSLQTEDTAMYFCARSGYYSSYMNWGQGVMVTVSS
VL: B1 VL with L4M, A5T, S33T, S61Y, R62G, V94A, P100L, R101N, G105A

Kd [1]: 67.7 nM | Kd (human ABCG2 [2]): 4.6 nM | Kd [3]: 15 nM
B3: G2.631 rat (antibody, V domains shown)
VH: EVKLLESGGGLVQSGRSLKLSCAASGFIFSRFYMAWVRQAPRKGLEWVAYISNGAGSTYYRESVKGRFIISRDNAKSTLYLQMDSLRSEDTATYYCTTVAAPWNYVMDGWGQGASVTVSS
VL: NIQITQSPSLLSASVGDRVTLSCKGSQNINNYLAWYQQKLGEAPKLLIYKTNSLHTGIPSRFSGSGSGTDYTLTISSLHSEDLATYYCYQYNNGYTFGAGTKLELK

Kd [3]: 14.8 nM | Kd (human ABCG2 [4]): 6.2 nM
B4: G2_732 (antibody, V domains shown)
VH: VQLKESGPGLVQPSQTLSLTCTVSGLSLTSTGVSWIRQPPGKGLEWMGVIWSNGGTDYNSAIKSRLSISRDTSKSQVFLKMNSLQTEDTAMYFCARAIAPSYIMDAWGQGASVTVSS
VL: DIQMTQSPPSLSASLGDKVTITCQASQNIHKYIAWYRQKPGKPPRLLIRYTSTLQSGTPSRFSGSGSGRDYSFSISNVESEDIASYYCLQYVNLWTFGGGTKLELK

Kd [1]: 540 nM | Kd (human ABCG2 [2]): 50.1 nM
B7: G2.629 rat (antibody, V domains shown)
VH: EVQLVESGGGLVQPGRSLKLSCAASGFIFSRFYMAWVRQAPTKGLEWVAYINTGGGTTYYRDSVKGRFTISRDNAKTTLYLQMDSLRSEDTATYYCTTLAAPWNYVMDAWGQGASVTVSS
VL: B3 VL with N1D, I2V, Q3V, I4M, S22T, Y32F, I48T, A99P

Kd [1]: 111 nM
B9: G2.333 rat (antibody, V domains shown)
VH: EIQLQESGPGLVKPSQSLSLTCSVTGYTITSGYDWTWLRKFPGNKMEWMGYISYSGFTNYNPSLRSRISISRDTSKNQFFLQLNSVTTEDTATYYCARTRGYNPFPYWGQGTLVTVSS
VL: DIQMTQSPSLLSASVGDRVSLSCKAGRNVNNYLAWYQQKLGKPPKLLIYNSNSLQTGIPSRFSGSGSGTDFTLTISSLQPEDVATYFCQQYNSWTTFGSGTKLEIK

Kd (human ABCG2 [7]): 17.5 nM | Kd [8]: 107 nM
B11: G2.758 rat (antibody, V domains shown)
VH: QGTLKESGPGIVQSSHTLSLTCSFSGFSLSTYGMGVSWIRQPSGKGLEWLASVWWNGDTSNNPSLKSRLTVSKDTS
VL: DIQMTQSPPSLSASLGDKVTITCQASQNIYKYIAWYQQKPGKAPRLLIRYTSTLHFGTPSRFSGSGSGRDYSFSISNVESEDIARYYCQQYVKFPNTFGAGTILELK

Kd (human ABCG2 [7]): 3.4 nM | Kd [8]: 2.4 nM
B12: G2.760 rat (antibody, V domains shown)
VH: EVQLVESGGGLVQPGRSMKLSCAASGFTFSKSDMAWVRQAPTKGLKWVASIRYDGGNTYYRDSVRGRFTISRDNAKSTLYLQMDSLRSEDTATYYCSTAKAAISTPSYYVLDAWGQGASVTVSS
VL: DIGMTQSPTSMSKSVGDRVTMNCKASQNVGSNVDWFQQKTGQSPKLLIYKSSNRYTGVPARFTGSGSGTDFTFTISNMQAEDLAVYYCMQSNSYPPTFGGGTKLELK

EC50 [5]: 65.3 nM | EC50 (human ABCG2 [6]): 18.5 nM
B15: G2.636.hu45 (antibody, V domains shown)
VH: EVQLVESGGGLVQPGGSLRLSCAASGFTFSRFYMAWVRQAPGKGLEWVAHISHGGDTTYYRDSVKGRFTISRDNSKNTLYLQMNSLRAEDTAVYYCTTSAAPWNYVMDGWGQGATVTVSS
VL: AIQLTQSPSSLSASVGDRVTITCKGSQNINNFLAWYQQKPGKAPKLLIYKTNSLHTGIPSRFSGSGSGTDYTLTISSLQPEDFATYYCYQYNNGYTFGQGTKLEIK

Kd [1]: 49.8 nM
B16: G2.318 rat (antibody, V domains shown)
VH: B9 VH with I2V, Q3K, Q5L, T36S, L38I, F57W, T99V, P106A
VL: B9 VL with Q3V, S20T, R27Q, V29I, K42E, P43A, S51A

EC50 (human ABCG2 [9]): 17.1 nM
B18: G2.173 mouse (antibody, V domains shown)
VH: QVQLQQSGADLVRPGASVKLSCTASGFNIKDDYVHWVKQRPEQGLEWIGRIDPANGNTRYAPKFRGKATMTADTSSNTAYLQLSSLTSADTAVYYCSPPLWVGGFAYWGQGTLVTVSS
VL: DVVMTQTPLSLPVSLGDQASISCRSSQSLVHSDVNTYLHWYLQRPGQSPKLLIYKVSNRFSGVPDRFSGSGSGTDFTLKISRVESEDLGIYFCSQTTHVPYTFGGGTKLEIK

Second part, the binder before the results:

B5: G2.636.hu25 (antibody, V domains shown)
VH: B15 VH with A114T, T115L
VL: B15 VL
EC50 [5]: 87.4 nM | EC50 (human ABCG2 [6]): 28.5 nM

B6: G2_767 (antibody, V domains shown)
VH: QVQLKESGPGLVQPSQTLSLTCTVSGLSLSSNSVSWIRQPPGKGLEWMGVIWNNGGTDYNSAIKSRLSISRDTSKSQVFLKLSSLQTEDTAMYFCARGYSSYIFDYWGQGVMVTVSS
VL: DIQMTQSPPSLSASLGDKVTITCQSSQNINNYIAWYQQKPGEAPRVLIRYTSTLQSGAPSRFSGSGSWRDYSFTISNVESEDIADYYCLQYVNLWTFGGGTKLEIK
Kd (human ABCG2 [7]): 31.2 nM | Kd [8]: 1370 nM

B8: G2_392 (antibody, V domains shown)
VH: B4 VH with K4V, G9D, K42R, K63R, P100A
VL: B4 VL with Q38H
Kd [3]: 93.4 nM | Kd (human ABCG2 [4]): 35.3 nM

B10: G2.65 mouse (antibody, V domains shown)
VH: QGQMHQSGAELVKPGASVKLSCKTSGFTFNSGYISWLKQKPRQSLEWIAWIYAGTGISNFNQKFTGKAQLTVDTSSSTAYMQLSSLTSADSAIYFCASGARKTLDFWGQGTSVTVSS
VL: DIQMTQSSSYLSVSVGGRVTITCKASDQINYWLAWYQQKPGNAPRLLISGATSLETGVPSRFSGSGSGKDYTLSITSFQTEDVATYYCQQYWTTPYTFGGGTKVEIK
EC50 (human ABCG2 [9]): 180 nM

B13: G2.636.hu27 (antibody, V domains shown)
VH: B15 VH with A114T, T115L
VL: B15 VL with A1D, I21L
EC50 [5]: 38.8 nM | EC50 (human ABCG2 [6]): 23.1 nM

B14: G2.636.hu47 humanized (antibody, V domains shown)
VH: B15 VH
VL: B15 VL with A1D, I21L
EC50 [5]: 42.6 nM | EC50 (human ABCG2 [6]): 20.4 nM

B17: G2.757 rat (antibody, V domains shown)
VH: QVTLKESGPGILRPSHTLSLTCSFSGFSLTTYGICVSWIRQPSGKGLEWLANICWEDSKAYNPSLKNRLTISKDTSNNQVFLRIPSVDTADSAIYYCARVFNNYPFPYWGQGTLVTVSS
VL: TQSPPSLSASLGDKVTITCQASQNINKYVAWYQQKPGKAPRLLIRYTSTLESGTPSRFSGSGSWRDYSFSISNVESEDIADYYCLQYVNLWTFGGGTKLELK
Kd (human ABCG2 [7]): 12.4 nM | Kd [8]: 73.5 nM
